Test results taken from patent US20230265183A1 (MABWELL SHANGHAI BIOSCIENCE, published 2023).

Assays:
[1] = biological target: T1, human Nectin-4(C-6His), Novoprotein Cat# CJ19 (human, UniProt Q96NY8 32-349); assay: ELISA, plate coated with 1 µg/ml human Nectin-4(C-6His), HRP-labelled secondary antibody, absorbance at 450 nm
T1 construct: Bought protein; also called recombinant human Nectin4 protein; antigen Nectin-4
T1 sequence: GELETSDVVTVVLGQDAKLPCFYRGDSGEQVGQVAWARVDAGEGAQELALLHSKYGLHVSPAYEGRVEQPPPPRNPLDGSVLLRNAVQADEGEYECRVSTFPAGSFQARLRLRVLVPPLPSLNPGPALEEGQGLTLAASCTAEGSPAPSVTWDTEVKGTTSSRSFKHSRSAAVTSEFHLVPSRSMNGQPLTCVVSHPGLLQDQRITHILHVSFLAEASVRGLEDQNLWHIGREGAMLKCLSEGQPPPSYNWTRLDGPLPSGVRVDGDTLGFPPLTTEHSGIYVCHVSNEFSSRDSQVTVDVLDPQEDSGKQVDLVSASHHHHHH
Experimental: (§1) Plates were coated with 1 µg/ml of the antigens and incubated at 4° C. overnight; next, antibodies serially diluted were added into the plates. Finally, the HRP-labeled secondary antibody was added, and absorbance at 450 nm was detected.

human Nectin-4 [2] = biological target: T2, human Nectin-4 (human, UniProt Q96NY8 32-510); assay: FACS on CHO-huNectin4 S8 cells
T2 construct: whole, on cells; Cell-surface target of the FACS, endocytosis and proliferation assays (CHO-huNectin4 S8 cells, BT474 cells); the assay field says which cells; also called huNectin4; PVRL4
T2 sequence (looked up): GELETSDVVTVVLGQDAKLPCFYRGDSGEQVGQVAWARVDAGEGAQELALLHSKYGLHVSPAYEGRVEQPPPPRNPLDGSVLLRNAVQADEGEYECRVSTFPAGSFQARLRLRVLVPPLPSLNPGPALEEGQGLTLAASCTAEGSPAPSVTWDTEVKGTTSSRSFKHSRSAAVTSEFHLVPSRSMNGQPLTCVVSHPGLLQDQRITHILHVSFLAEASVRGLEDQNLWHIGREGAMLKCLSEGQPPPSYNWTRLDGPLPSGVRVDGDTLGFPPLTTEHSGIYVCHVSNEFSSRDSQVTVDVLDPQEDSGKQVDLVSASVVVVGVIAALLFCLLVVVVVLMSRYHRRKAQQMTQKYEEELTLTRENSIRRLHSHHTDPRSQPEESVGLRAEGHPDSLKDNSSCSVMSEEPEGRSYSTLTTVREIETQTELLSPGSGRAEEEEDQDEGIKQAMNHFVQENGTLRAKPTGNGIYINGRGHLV

[3] = biological target: T3, human Nectin-1(C-6His), Novoprotein Cat# C492 (human, UniProt Q15223 31-334, limits assumed); assay: ELISA, plate coated with 1 µg/ml human Nectin-1(C-6His), absorbance at 450 nm. The text names only a goat anti-rabbit HRP secondary antibody
T3 sequence: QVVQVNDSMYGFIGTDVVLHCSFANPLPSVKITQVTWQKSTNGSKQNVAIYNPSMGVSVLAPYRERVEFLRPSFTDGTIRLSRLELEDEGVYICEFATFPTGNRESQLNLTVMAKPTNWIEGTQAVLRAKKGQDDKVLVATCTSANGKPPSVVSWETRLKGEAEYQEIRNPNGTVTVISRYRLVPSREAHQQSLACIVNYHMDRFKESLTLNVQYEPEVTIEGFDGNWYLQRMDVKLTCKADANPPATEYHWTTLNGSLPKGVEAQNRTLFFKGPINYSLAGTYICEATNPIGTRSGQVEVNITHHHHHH
Experimental: as §1

His-tagged human NECTIN4 [4] = biological target: T4, His-tagged human NECTIN4 (human, UniProt Q96NY8 32-349); assay: SPR (BIAcore S200), antigen on CAP chip, antibody as analyte, 1:1 fit
T4 construct: Antigen of the BIAcore assay; also called antigen; recombinant NECTIN4 protein; not shown: His tag
T4 sequence: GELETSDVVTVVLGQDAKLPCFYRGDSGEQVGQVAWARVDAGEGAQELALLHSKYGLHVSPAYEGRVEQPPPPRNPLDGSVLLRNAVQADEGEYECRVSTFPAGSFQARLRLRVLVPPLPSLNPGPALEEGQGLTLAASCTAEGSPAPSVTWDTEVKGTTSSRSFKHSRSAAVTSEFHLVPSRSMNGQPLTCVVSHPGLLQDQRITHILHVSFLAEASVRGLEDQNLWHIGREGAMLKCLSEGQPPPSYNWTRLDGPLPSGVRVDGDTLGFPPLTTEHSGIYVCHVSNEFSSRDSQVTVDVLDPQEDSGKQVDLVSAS
Experimental: Interactions between the antibodies and the antigen were measured using a BIAcore instrument S200 from GE. Referring to the instructions provided in Biotin Capture Kit from GE Healthcare, the analytical channel and the control sample channel on CAP sensor chip were first coupled with antigen i.e. His-tagged human NECTIN4, then samples containing antibodies (diluted 3-fold from an initial concentration of 20 nM respectively and solutions of each antibody of 8 concentrations were obtained totally, and the concentration 0.741 nM was set to be repeated) were allowed to flow through both the analytical channel and the sample channel, and the photoreactions upon antibody-antigen binding were measured. Association constant Kon and dissociation constant Koff and affinity constant KD of each antibody were finally obtained by instrument software fitting (1:1 binding mode) analysis.

His-tagged human NECTIN4 [5] = biological target: T4, His-tagged human NECTIN4; assay: ELISA, antibody without cyno serum, plate coated with 0.2 µg/ml antigen, HRP goat anti-human IgG, OD450. The sheet does not say which of the two plates of Example 13 is drawn
human Nectin-4 [6] = biological target: T2, human Nectin-4; assay: cell-based or functional assay
human Nectin-4 [7] = biological target: T2, human Nectin-4; assay: FACS on BT474 cells
Experimental: (§2) The solutions of different concentrations were added to 384-well plates, 10 µl per well.
(§3) BT474 cells (breast cancer cells) expressing Nectin-4 on the cell surface were collected by centrifugation at 100 g at room temperature for 5 minutes, and then the cells were washed with PBS containing 0.5% BSA once and were centrifuged at 100 g at room temperature for 5 minutes. […] After incubation at 4° C. for 1 hour, fluorescently labeled goat anti-human IgG secondary antibody was added. After continued incubation at 4° C. for 1 hour, mean fluorescence readings of the cell populations were analyzed by a flow cytometer.

human Nectin-4 [8] = biological target: T2, human Nectin-4; assay: FACS on BT474 cells; remark: listed apart in the source
Experimental: as §2, §3

human Nectin-4 [9] = biological target: T2, human Nectin-4; assay: FACS on BT474 cells; remark: listed apart in the source
Experimental: as §2, §3
The experiment results of the binding of engineered humanized molecules of the present disclosure to BT474 cells by FACS assay are shown in panels 3B and 3C in FIG. 3 and Tables 6 and 7.

B1: 42D20 hz10 (antibody, V domains shown)
VH: QVQLQESGPGLVKPSETLSLTCTVSGFSLIDYGVSWIRQPPGKGLEWIGVIWGDGKIYYNSVLKSRVTISKDNSKSQVSLKLSSVTAADTAVYYCAKQGGLLFYAMDYWGQGTLVTVSS
VL: DIVMTQSPDSLAVSLGERATINCKSSQSLLNSYSQKNYLAWYQQKPGQPPKLLIYFASTRESGVPDRFSGSGSGTDFTLTISSLQAEDVAVYYCQQHYNTPFTFGAGTKLELKR
notes: Humanized
EC50 (read off the curve) [1]: ~0.09 µg/mL
EC50 (human Nectin-4 [2]): 0.801 µg/mL
binding result [3]: no binding (tested: about 2.5 µg/ml (last point))
Kd (His-tagged human NECTIN4 [4]): 1.14 nM

B2: Enfortumab (antibody, human IgG1, kappa, V domains shown)
VH: EVQLVESGGGLVQPGGSLRLSCAASGFTFSSYNMNWVRQAPGKGLEWVSYISSSSSTIYYADSVKGRFTISRDNAKNSLSLQMNSLRDEDTAVYYCARAYYYGMDVWGQGTTVTVSS
VL: DIQMTQSPSSVSASVGDRVTITCRASQGISGWLAWYQQKPGKAPKFLIYAASTLQSGVPSRFSGSGSGTDFTLTISSLQPEDFATYYCQQANSFPPTFGGGTKVEIKR
notes: also called control antibody Enfortumab
EC50 (read off the curve) (His-tagged human NECTIN4 [5]): ~0.1 µg/mL
EC50 (ng/ml), inhibition of proliferation of BT474 cells (human Nectin-4 [6]): 3.37 ng/mL
Percentage of cell killing at the highest concentration (human Nectin-4 [6]): 43.3%
EC50 (read off the curve) [1]: ~0.1 µg/mL
EC50 (human Nectin-4 [2]): 0.513 µg/mL
binding result [3]: no binding (tested: about 2.5 µg/ml (last point))
EC50 (human Nectin-4 [7]): 29.6 µg/mL
Kd (His-tagged human NECTIN4 [4]): 4.94 nM
EC50 (human Nectin-4 [8]): 98.8 µg/mL
EC50 (human Nectin-4 [9]): 57.2 µg/mL
